Assay results as given in PMC8463545 (2021).

T1: RpfG-MBP (Lysobacter enzymogenes)
T1 chain: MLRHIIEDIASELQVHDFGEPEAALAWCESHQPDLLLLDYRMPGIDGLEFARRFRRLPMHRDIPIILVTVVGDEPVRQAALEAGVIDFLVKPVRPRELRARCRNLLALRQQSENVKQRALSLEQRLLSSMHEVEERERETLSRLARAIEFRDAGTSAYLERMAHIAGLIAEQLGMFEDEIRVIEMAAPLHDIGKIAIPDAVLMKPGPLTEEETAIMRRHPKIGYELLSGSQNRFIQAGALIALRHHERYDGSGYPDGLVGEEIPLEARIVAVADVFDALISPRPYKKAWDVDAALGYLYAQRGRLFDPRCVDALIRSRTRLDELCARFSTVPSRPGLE


Tests used:
RpfG-MBP [1] = target: T1, RpfG-MBP; assay: SPR
RpfG-MBP [2] = target: T1, RpfG-MBP; assay: SPR

Row | Binder | Ka (RpfG-MBP [1]) [M⁻¹] | koff (RpfG-MBP [2]) [s⁻¹]
1 | HtsH2C-HA-His (domain or fragment, Phosphorylated as purified (CIAP-sensitive). Primers give (M)AKTRFL... to ...DAADAP (C-terminus). The candidate lists no features, so the start is estimated from the paralogues' fragment lengths and may be off by a few residues. Assignment of this entry to HtsH2 is inferred. The entry is probably not from strain OH11.) not shown | 3.34e+06 | 0.00129
2 | HtsH1C-Flag-His (domain or fragment, Phosphorylated as purified (CIAP-sensitive). Limits from the expression primers: (M)AKTRFL... to ...LFEREA, just before the His-kinase domain to the C-terminus. The start codon Met and Flag/His tags are left out. Positions are inferred from the candidate's domain features. The entry is probably not from strain OH11.) not shown | 1.5e+07 | 0.00118
3 | HtsH3C-Myc-His (domain or fragment, Phosphorylated as purified (CIAP-sensitive). Primers give (M)AKTRFL... to ...ARRGEG (C-terminus). Positions are inferred from the candidate's His-kinase domain start. Assignment of this entry to HtsH3 is inferred. The entry is probably not from strain OH11.) not shown | 5.96e+06 | 0.000738
